Measurements reported in paper PMC3430215.

Molecular target: Dunaliella salina Hsp90 (DsHsp90) (Dunaliella salina)
Test: SEC; Superdex G200 10/30 column on an AKTA system; 40 mM HEPES, 25 mM KCl, pH 7.5; apparent molecular weight from a standard curve of markers; single peak

stoichiometry N: 2
Substance: Dunaliella salina Hsp90 (DsHsp90) (natural protein)
